Source: IntAct's records for PubMed 22982234

B1: Myosin-binding protein C, cardiac-type (Mus musculus), O70468 (parent)
chain: MPEPGKKPVSAFNKKPRSAEVTAGSAAVFEAETERSGVMVRWQRDGSDITANDKYGLAAEGKRHTLTVRDASPDDQGSYAVIAGSSKVKFDLKVTEPAPPEKAESEVAPGAPEEVPAPATELEESVSSPEGSVSVTQDGSAAEHQGAPDDPIGLFLMRPQDGEVTVGGSIVFSARVAGASLLKPPVVKWFKGKWVDLSSKVGQHLQLHDSYDRASKVYLFELHITDAQTTSAGGYRCEVSTKDKFDSCNFNLTVHEAIGSGDLDLRSAFRRTSLAGAGRRTSDSHEDAGTPDFSSLLKKRDSFRRDSKLEAPAEEDVWEILRQAPPSEYERIAFQHGVEACHRPLKRLKGMKQDEKKSTAFQKKLEPAYQVNKGHKIRLTVELADPDAEVKWLKNGQEIQMSGSKYIFESVGAKRTLTISQCSLADDAAYQCVVGGEKCSTELFVKEPPVLITRSLEDQLVMVGQRVEFECEVSEEGAQVKWLKDGVELTREETFKYRFKKDGRKHHLIINEATLEDAGHYAVRTSGGQSLAELIVQEKKLEVYQSIADLAVGAKDQAVFKCEVSDENVRGVWLKNGKELVPDNRIKVSHIGRVHKLTIDDVTPADEADYSFVPEGFACNLSAKLHFMEVKIDFVPRQEPPKIHLDCPGSTPDTIVVVTGNKLRLDVPISGDPAPTVVWQKTVTQGKKASAGPHPDAPEDAGADEEWVFDKKLLCETEGRVRVETTKDRSVFTVEGAEKEDEGVYTVTVKNPVGEDQVNLTVKVIDVPDAPAAPKISNVGEDSCTVQWEPPAYDGGQPVLGYILERKKKKSYRWMRLNFDLLRELSHEARRMIEGVAYEMRVYAVNAVGMSRPSPASQPFMPIGPPGEPTHLAVEDVSDTTVSLKWRPPERVGAGGLDGYSVEYCQEGCSEWTPALQGLTERRSMLVKDLPTGARLLFRVRAHNVAGPGGPIVTKEPVTVQEILQRPRLQLPRHLRQTIQKKVGEPVNLLIPFQGKPRPQVTWTKEGQPLAGEEVSIRNSPTDTILFIRAARRTHSGTYQVTVRIENMEDKATLILQIVDKPSPPQDIRIVETWGFNVALEWKPPQDDGNTEIWGYTVQKADKKTMEWFTVLEHYRRTHCVVSELIIGNGYYFRVFSHNMVGSSDKAAATKEPVFIPRPGITYEPPKYKALDFSEAPSFTQPLANRSIIAGYNAILCCAVRGSPKPKISWFKNGLDLGEDARFRMFCKQGVLTLEIRKPCPYDGGVYVCRATNLQGEAQCECRLEVRVPQ

Variants of: B1
Details: with actc_mouse Actc1, P68033

Effect of a mutation on the interaction, disrupting interaction strength:
K188A;K191A;K193A
R279A;R280A
R279A;R280A;T281A
R304A;R305A

Variants of: B1
Details: with myh6_mouse Myh6, Q02566
Chain of myh6_mouse Myh6, Q02566 (Q02566 whole entry): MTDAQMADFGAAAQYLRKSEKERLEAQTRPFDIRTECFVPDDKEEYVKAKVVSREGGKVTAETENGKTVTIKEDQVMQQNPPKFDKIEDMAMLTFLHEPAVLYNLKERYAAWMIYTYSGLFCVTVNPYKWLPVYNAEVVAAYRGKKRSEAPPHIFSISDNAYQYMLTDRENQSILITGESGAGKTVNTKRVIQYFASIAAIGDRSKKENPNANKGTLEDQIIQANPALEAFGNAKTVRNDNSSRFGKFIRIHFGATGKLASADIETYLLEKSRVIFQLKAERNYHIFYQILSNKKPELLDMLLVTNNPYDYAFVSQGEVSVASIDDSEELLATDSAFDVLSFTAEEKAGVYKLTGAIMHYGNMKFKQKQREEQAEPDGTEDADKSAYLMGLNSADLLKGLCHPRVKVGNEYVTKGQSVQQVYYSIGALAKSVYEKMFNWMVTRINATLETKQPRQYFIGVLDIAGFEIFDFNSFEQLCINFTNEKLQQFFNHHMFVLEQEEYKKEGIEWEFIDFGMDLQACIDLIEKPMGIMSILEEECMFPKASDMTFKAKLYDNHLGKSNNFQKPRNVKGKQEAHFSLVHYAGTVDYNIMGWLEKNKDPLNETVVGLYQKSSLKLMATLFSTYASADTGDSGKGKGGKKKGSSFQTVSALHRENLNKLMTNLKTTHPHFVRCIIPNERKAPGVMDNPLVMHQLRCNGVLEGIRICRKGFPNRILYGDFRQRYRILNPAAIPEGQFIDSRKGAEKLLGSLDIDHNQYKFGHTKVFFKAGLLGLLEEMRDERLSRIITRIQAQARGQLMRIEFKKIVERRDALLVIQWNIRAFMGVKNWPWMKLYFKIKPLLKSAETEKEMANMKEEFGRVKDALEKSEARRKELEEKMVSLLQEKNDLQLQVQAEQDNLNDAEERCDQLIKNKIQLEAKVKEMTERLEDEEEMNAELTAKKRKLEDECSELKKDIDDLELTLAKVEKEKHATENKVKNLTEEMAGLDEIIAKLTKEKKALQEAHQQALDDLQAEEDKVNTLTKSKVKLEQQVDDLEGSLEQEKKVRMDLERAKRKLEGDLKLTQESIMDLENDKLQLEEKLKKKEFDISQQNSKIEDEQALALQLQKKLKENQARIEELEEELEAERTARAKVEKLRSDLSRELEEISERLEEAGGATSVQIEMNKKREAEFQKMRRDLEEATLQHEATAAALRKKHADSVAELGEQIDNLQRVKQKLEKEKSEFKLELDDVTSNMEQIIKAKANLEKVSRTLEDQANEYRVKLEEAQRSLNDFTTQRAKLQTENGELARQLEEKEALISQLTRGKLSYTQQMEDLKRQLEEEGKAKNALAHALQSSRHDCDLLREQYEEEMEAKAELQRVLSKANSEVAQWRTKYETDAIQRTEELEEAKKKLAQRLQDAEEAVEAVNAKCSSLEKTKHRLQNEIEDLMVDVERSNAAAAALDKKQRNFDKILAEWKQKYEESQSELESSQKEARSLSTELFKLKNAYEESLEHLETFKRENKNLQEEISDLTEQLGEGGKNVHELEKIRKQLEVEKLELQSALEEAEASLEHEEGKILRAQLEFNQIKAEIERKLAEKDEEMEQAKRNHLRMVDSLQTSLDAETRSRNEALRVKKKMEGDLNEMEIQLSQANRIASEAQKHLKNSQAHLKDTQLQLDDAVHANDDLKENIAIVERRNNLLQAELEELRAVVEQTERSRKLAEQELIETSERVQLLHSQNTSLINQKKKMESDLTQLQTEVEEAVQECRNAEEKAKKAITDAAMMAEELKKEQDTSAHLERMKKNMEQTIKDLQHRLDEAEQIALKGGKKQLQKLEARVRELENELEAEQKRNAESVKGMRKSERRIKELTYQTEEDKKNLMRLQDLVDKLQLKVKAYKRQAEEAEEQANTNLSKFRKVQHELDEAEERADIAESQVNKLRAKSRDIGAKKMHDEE

Effect of a mutation on the interaction, disrupting interaction strength:
R279A;R280A;T281A
R266A;R270A;R271A
K298A;K299A
K298A;K299A;R300A
